Where “and” joins values, the source holds several entries; their conditions need not be identical. Identical values can stand only once. Square brackets hold non-standard residues; d marks the D form. Ends that are not written are not given here. dNle = CCCC[C@@H](N)C(=O)O
Target: Tau40 P301L protein (human)
Test: cell-based or functional assay

Binder	IC50, Tau40 assay (ThT)
[dF][dR][dL][dR][dI][dH][dW] [frlrihw (PEPTIDE ID NO: 270)]	1.2 µM and 1.47 µM
[dL][dK][dI][dR][dI][dH][dY][dH] [lkirihyh (PEPTIDE ID NO: 147)]	1.25 µM and 0.67 µM
[dF][dR][dL][dK][dL][dR][dH][dW] [frlklrhw (PEPTIDE ID NO: 116)]	1.24 µM
[dF][dR][dI][dR][dI][dH][dH][dW] [fririhhw (PEPTIDE ID NO: 115)]	1.24 µM and 1.31 µM
[dE][dL][dK][dI][dR][dI][dH][dY] [elkirihy (PEPTIDE ID NO: 253)]	1.16 µM
[dL][dH][dL][dK][dI][dR][dY][dH] [lhlkiryh (PEPTIDE ID NO: 410)]	1.16 µM
[dF][dR][dL][dK][dI][dR][dH][dW] [frlkirhw (PEPTIDE ID NO: 117)]	1.15 µM and 1.2 µM
[dL][dK][dI][dR][dI][dH][dY][dF] [lkirihyf (PEPTIDE ID NO: 250)]	1.11 µM
[dF][dR][dI][dR][dI][dK][dH][dY] [fririkhy (PEPTIDE ID NO: 114)]	1.12 µM and 1.15 µM
[dL][dK][dI][dR][dI][dR][dY][dH] [lkiriryh (PEPTIDE ID NO: 194)]	0.65 µM and 0.85 µM

The remaining lines, values ahead:

IC50, Tau40 assay (ThT)	Binder
1.12 µM	[dL][dK][dI][dR][dI][dNle][dY] [lkiriuy (PEPTIDE ID NO: 251)]
1.21 µM and 1.68 µM	[dR][dL][dK][dI][dR][dW] [rlkirw (PEPTIDE ID NO: 23)]
0.66 µM	[dW][dW][dR][dV][dK][dL][dR][dW] [wwrvklrw (PEPTIDE ID NO: 195)]
1.13 µM	[dW][dW][dR][dF][dH][dW][dR] [wwrfhwr (PEPTIDE ID NO: 43)]
1.17 µM	[dW][dR][dL][dK][dT][dR][dW] [wrlktrw (PEPTIDE ID NO: 255)]
1.25 µM	[dW][dA][dL][dK][dV][dR][dW] [walkvrw (PEPTIDE ID NO: 257)]
1.22 µM and 1.54 µM	[dL][dR][dI][dR][dL][dH][dH][dF] [lrirlhhf (PEPTIDE ID NO: 146)]
1.19 µM and 1.1 µM	[dL][dR][dI][dR][dI][dK][dH][dY] [lririkhy (PEPTIDE ID NO: 145)]
1.19 µM	[dW][dH][dL][dR][dL][dR][dH][dW] [whlrlrhw (PEPTIDE ID NO: 109)]
1.17 µM and 1.57 µM	[dM][dR][dL][dK][dV][dR][dW] [mrlkvrw (PEPTIDE ID NO: 254)]
1.19 µM	[dY][dL][dK][dI][dR][dI][dH][dY] [ylkirihy (PEPTIDE ID NO: 256)]
1.12 µM and 1.21 µM	[dW][dI][dK][dI][dR][dW] [wikirw (PEPTIDE ID NO: 21)]
1.11 µM	[dW][dL][dR][dV][dQ][dV][dK][dL][dW] [wlrvqvklw (PEPTIDE ID NO: 416)]
0.65 µM and 1.02 µM	[dW][dK][dL][dW][dL][dR][dW] (not fully specified; printed as wklwlrw) [wklwlrw (PEPTIDE ID NO: 91)]

Reference: US20200216495A1 (ADRX, published 2020)
